This note sets out measurements from US12679878B2, “CRF2 receptor agonists and their use in therapy” (SANOFI, priority 2020, dated 2026).

The test has as its target human corticotropin-releasing factor 2α (CRF2 α receptor) (human), Q13324. The experiment in a line: cell-based or functional assay.

Starred links: 1 amine or outer side, 2 acyl side, 3 side chain; linkers in the order of their positions; H or OH if unused. Non-standard residues stand in square brackets, D forms with d. Groups on a side chain read outwards from the residue. No end group written: not given here. *: point of attachment. C18 diacid = O=C(O)CCCCCCCCCCCCCCCCC(=O)*; γGlu = O=C(O)[C@H](CCC(=O)[*:2])N[*:1]; AEEA = NCCOCCOCC(=O)O; Aib = CC(C)(N)C(=O)O

Chain of human corticotropin-releasing factor 2α (CRF2 α receptor) (human), Q13324 (Q13324 20-411): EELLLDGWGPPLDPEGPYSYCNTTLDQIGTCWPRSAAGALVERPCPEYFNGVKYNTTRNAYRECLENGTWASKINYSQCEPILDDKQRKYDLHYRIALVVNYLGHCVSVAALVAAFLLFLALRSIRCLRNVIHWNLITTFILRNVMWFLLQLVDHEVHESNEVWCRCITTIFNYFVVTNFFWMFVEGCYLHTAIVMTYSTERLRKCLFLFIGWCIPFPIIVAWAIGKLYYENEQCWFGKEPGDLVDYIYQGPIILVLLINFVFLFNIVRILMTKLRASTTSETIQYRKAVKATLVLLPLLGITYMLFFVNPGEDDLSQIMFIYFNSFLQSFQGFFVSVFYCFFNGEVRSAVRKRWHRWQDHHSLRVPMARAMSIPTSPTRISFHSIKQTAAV

B1: SEQ ID NO: 39 (peptide)
peptide: IVLSLDVPIKLK([AEEA-AEEA-γGlu-C18 diacid])QILLEQERQRKERQQAETNAQILAQV-NH2
modifications: N-terminus assumed
SMILES: CC[C@H](C)[C@H](N)C(=O)N[C@H](C(=O)N[C@@H](CC(C)C)C(=O)N[C@@H](CO)C(=O)N[C@@H](CC(C)C)C(=O)N[C@@H](CC(=O)O)C(=O)N[C@H](C(=O)N1CCC[C@H]1C(=O)N[C@H](C(=O)N[C@@H](CCCCN)C(=O)N[C@@H](CC(C)C)C(=O)N[C@@H](CCCCNC(=O)COCCOCCNC(=O)COCCOCCNC(=O)CC[C@H](NC(=O)CCCCCCCCCCCCCCCCC(=O)O)C(=O)O)C(=O)N[C@@H](CCC(N)=O)C(=O)N[C@H](C(=O)N[C@@H](CC(C)C)C(=O)N[C@@H](CC(C)C)C(=O)N[C@@H](CCC(=O)O)C(=O)N[C@@H](CCC(N)=O)C(=O)N[C@@H](CCC(=O)O)C(=O)N[C@@H](CCCNC(=N)N)C(=O)N[C@@H](CCC(N)=O)C(=O)N[C@@H](CCCNC(=N)N)C(=O)N[C@@H](CCCCN)C(=O)N[C@@H](CCC(=O)O)C(=O)N[C@@H](CCCNC(=N)N)C(=O)N[C@@H](CCC(N)=O)C(=O)N[C@@H](CCC(N)=O)C(=O)N[C@@H](C)C(=O)N[C@@H](CCC(=O)O)C(=O)N[C@H](C(=O)N[C@@H](CC(N)=O)C(=O)N[C@@H](C)C(=O)N[C@@H](CCC(N)=O)C(=O)N[C@H](C(=O)N[C@@H](CC(C)C)C(=O)N[C@@H](C)C(=O)N[C@@H](CCC(N)=O)C(=O)N[C@H](C(N)=O)C(C)C)[C@@H](C)CC)[C@@H](C)O)[C@@H](C)CC)[C@@H](C)CC)C(C)C)C(C)C
B1 yielded an EC50 [nM], 0% HSA of 0.65 nM.

B2: SEQ ID NO: 38 (peptide)
peptide: IVLSLDVPTKLK([AEEA-AEEA-γGlu-C18 diacid])QKLLKQERQR[Aib]ERQQAETNKRILERV-NH2
modifications: N-terminus assumed
SMILES: CC[C@H](C)[C@H](N)C(=O)N[C@H](C(=O)N[C@@H](CC(C)C)C(=O)N[C@@H](CO)C(=O)N[C@@H](CC(C)C)C(=O)N[C@@H](CC(=O)O)C(=O)N[C@H](C(=O)N1CCC[C@H]1C(=O)N[C@H](C(=O)N[C@@H](CCCCN)C(=O)N[C@@H](CC(C)C)C(=O)N[C@@H](CCCCNC(=O)COCCOCCNC(=O)COCCOCCNC(=O)CC[C@H](NC(=O)CCCCCCCCCCCCCCCCC(=O)O)C(=O)O)C(=O)N[C@@H](CCC(N)=O)C(=O)N[C@@H](CCCCN)C(=O)N[C@@H](CC(C)C)C(=O)N[C@@H](CC(C)C)C(=O)N[C@@H](CCCCN)C(=O)N[C@@H](CCC(N)=O)C(=O)N[C@@H](CCC(=O)O)C(=O)N[C@@H](CCCNC(=N)N)C(=O)N[C@@H](CCC(N)=O)C(=O)N[C@@H](CCCNC(=N)N)C(=O)NC(C)(C)C(=O)N[C@@H](CCC(=O)O)C(=O)N[C@@H](CCCNC(=N)N)C(=O)N[C@@H](CCC(N)=O)C(=O)N[C@@H](CCC(N)=O)C(=O)N[C@@H](C)C(=O)N[C@@H](CCC(=O)O)C(=O)N[C@H](C(=O)N[C@@H](CC(N)=O)C(=O)N[C@@H](CCCCN)C(=O)N[C@@H](CCCNC(=N)N)C(=O)N[C@H](C(=O)N[C@@H](CC(C)C)C(=O)N[C@@H](CCC(=O)O)C(=O)N[C@@H](CCCNC(=N)N)C(=O)N[C@H](C(N)=O)C(C)C)[C@@H](C)CC)[C@@H](C)O)[C@@H](C)O)C(C)C)C(C)C
As for B2, the EC50 [nM], 0% HSA amounted to 20.9 nM.
